# From the nanobody polyreactivity screen of Harvey et al. (2022)
# Test: yeast display, Sf9 membrane polyspecificity reagent, FACS + sequencing; frameworks hold sequencing errors
# In short: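 A nanobody's polyreactivity label depends on the gate it was sorted from. Yeast display cells were stained with 10% biotinylated, detergent-solubilized Sf9 membrane reagent for 1 hour at 4 °C, enriched on streptavidin microbeads and sorted by FACS. The low and high (top ~1%) gates were set on anti-HA fluorescence for expression and streptavidin fluorescence for reagent binding.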
row,Sequence,polyreactivity (PSR sort gate)
1,QVQLVEAGGGLVQAGGSLRLSCAASGITCRNDAIGWYRQAAGKERELVADITTGGSTYADSVKGRFTISRDNAKNTVYLQLISLKPEDTAVYYFAADRDFRTPRLYYWGQGTQVTVSS,low polyreactivity
2,QVQLVESGGGLVQAGGSLRLSCAASGYIFNSNTMGWYRPAPGKERELVAAITSSGGRTNYADSVKGRFTISRDNAKNTVYLQMNSLKPEDTAVYYCATRVYYRAGRYKYDYWGQGTQVTVSS,high polyreactivity
3,QVQLVESGGGLVQAGGSLRLSCAASGSIFKQNAMGWYRQAPGKERELVADITSSGGSTYYADSVKGRFTISRDNAKNTVYLQMNSLKPEDTAVYYCAADGNGVDYDYWGQGTQVTVSS,low polyreactivity
4,QVQLHESGRGLVQAGGSLRLSCAASGTISYAGQMGWYRQAPGKEREFVAAIGVGSNTNYADIVKGRYTIIRYNAKNSVYLQIISLKPEDTAVYYCAVGCYAPLGRPFWGQGTQVTVSS,low polyreactivity
5,QVQLVESGGGLVQAGGSLRLSCAASGSTFDVYAKGWYRQAPGKEWELVAAISRSGGSTYYADSVKGRFTISRDNAKNTVYLQMNSLKPEDTAVYYCNPRLARWGSDEYNYWGQGTQETVSS,low polyreactivity
6,QVQLVESGGGLVQAGGSLRLSCAASGRIFPPYAMGWYRQAPGKERELVAAISSSTTSTYYADSVKGRFTISRDNAKNTVYLQMNSLKPEDTADYYCAATGKGSYGYWGQGTQVTVSS,low polyreactivity
7,QVQLVESGGGLVQAGGSLRLICAASGFIITGNAMGWYRQAPGKERELVAAITSGGNTYYADSVKGRFTISRDNAKNTVYLQMISMKPEDTAVYYCAKYGPHWRILMEYWGQGTQVTVSS,low polyreactivity
8,QDQLVESWVGLVQAGGSLRLSCAASGTISSYAMGWSRQAPGKERELVASIRYRGGSTYYADSVKGRFTISRDNEKNTVYLQINSLKPEDTAVYYCNAVRVPYVRGAKFEYWGQGTQVTVSS,low polyreactivity
9,QVHLGDSGGGLVQAGGSLRLSCAASGRIFWTYAMGWYRQAPGKERELVAAIRWSSGSTRYADSVKGRFTISRDNAKNTVYLQLNSVKPEDTAVYYCAADAFRSQRPYTYDYWGQGTQVTVSS,high polyreactivity
10,QVQLVESGGGLVQAGGSLRLTCAASGRTFGYYTMGWYRQAPGKERELVATISSDGTTNYADSVKGRFTISRDNAKNTVYLQMNSLKPEDTAVYYCNADFRLQYYYRIYDYWGQGTQVTVSS,low polyreactivity
11,QVQLVESGGGLDQAGGSLRLSCAASGRTFANAMGWYRQAPGKERELVAGITSGGGRTYYADSVKGRFTMSRDNAKNTVYLQMNSLKPEDTAVYYCNRATPPGRLKSDSWGQGTQVTVSS,high polyreactivity
12,QVQLQESGDGLVQAVGSLRLSCAASGYISGYYYMGWYRQAPGKERELVAGIDAFGSSTNYADCVKGRFTISRDNATHTVYLQMNSLKPEDTAVYYCAARPDGDRLFSYWGQGTQVTVSS,low polyreactivity
13,QVQLVESGGGLVEAGGSLRLSCAASGFIFSSYVMGWYRQAPGKERELVAAITSGNSTYYADSVKGRFTISRDNAKTTVYLQMNSLKPEDTAVSYCTADSYHTYYYWYDYWGQGTQVTVSS,low polyreactivity
14,QVQLVESGGGLVQAGGSLRLSCAASGSTLGYYAKGWYRQAPGKERELVATITRSGGNTYYADSVKGRFTISRDNAKNTVYLQMNSLKPEDTAVYYCAARRLYGSQRGYWGQGTQLTVSS,high polyreactivity
15,QVQLVESGGGLVQAGGSLRLSCAASGSIFVPNAMGRYRQAPGKERELVAAITSGGSTYYADSVKGRFTISRDNAKNTVYLQMNSLKPEDTAVYYCAADIGSQYFGHYDYWGQGTQVTVSS,high polyreactivity
16,QVQLVESGGGLVQAGGSLRLSCAASGSIFIPYAMGWYRQAPGKERELVAAISGSGGSTYYADSVKGRFTISRDNAKNTVYLQMNSLKPEDTAVYYCNAVYRRSKYYFSQGYDYWGQGTQVTVSS,high polyreactivity
17,QVQLVESGGGLVQAGGSLRLSCAASGFIFRGNAMGWYRQAPGKERELVAAISRRGGTTYYADSVKGRFTISRDNAKNTVYLQMNSLKPEDTAVYYCAKLVVVPFYYWGQGTQVTVSS,high polyreactivity
18,QVQLVESGGGLVQAGGSLRLSCAASGRIFQYYAMGWYRQAPGKERELVAAITRSGGRTYYADSVKGRFTISRDNAKNTVFLQMNSLKPEDTAVYYCAARDWYYTMYYWGQGTQVTVSS,high polyreactivity
19,QVQLVESGGGLVQAGGSLRLSCAASGIIFGGNAMGWYRQAPGKERELVATISNGGSTKYADSVKGRFTISRDNAKNTVYLQMNSLKPEYTAVYYCAAQPRVGSYVRSSRGRYNHWGQGTQVTVSS,high polyreactivity
20,QVQLVESCGGLVQAGGSLRLSCAASGLIFPVYAMGWYRQAPGKEREFVASIWRGGTTYYADSVKGRFTISRDNEKNTVYLQMNSLKPEDTAVYYCAARDYPRGLVFPFTKYDYWGQGTQVTVSS,high polyreactivity
21,QVQLVESGGGLVQEGGSLRLSCAASGRTFSRYVMGWYRQAPGKERELVAAIRGSGGGTYYADSVKGRFTISRDNAKNTVYLQMNSLKPEDTAVYYCNVVRSTVLYDYWGQGTQVTVSS,high polyreactivity

row,Sequence,polyreactivity (PSR sort gate)
1,QVQLVESGGGLVQAGGSLRLSCAASGYIFLPNTMGWYRQAPGKERELVAVISKSGTSTYYADSVKGRFTISRDNAKNTVYLQMNSLKPEDTAVYYCNRVYRLTAYGYDYWGQGTQVTLSS,high polyreactivity
2,QVQLVESGGGLVQAGGSLRLSCAASGSTYYNAMGWYRQAPGKERELVAAIRFRSGSTYYADSVKGRFTISRDNAKNTVYLQMNSLKPEDTAVYYCAADNKRSWRYAYNYWGQGTQVTVSS,high polyreactivity
3,QVQLVESGGGLVQAGGSLRLSCAASGITFYYNTMGWYRQAPGKERELVAAISSRSGSTYYADSVKGRFTISRDKAKNNVSLQMNCLKPEDTAVYYCAARRAAKYYWGQGTQVTVSS,high polyreactivity
4,QVQLVESGGGLVQAGVSLRLSCAASGSIFSWNAMGWYRQAPGKERELVATITWNGGRTYYADSVKGRFTISRDNAKNTVYLQMNSLKPEDTAVYYCAARYYVYWTYPYRVLSYYYWGQGTQVTVSS,high polyreactivity
5,QVQLVESGRGLVQAGGSLRLSCAASGSTINYKAMGWYRQAPGKERELVAAIDSGVSTNYADSVKGLFTISRDHAKNTVYLQMNSLKPEDTAVYYCNADPDYFDYWGQGTQVTVSS,low polyreactivity
6,QVHLVESGGGLVQAGGSLRLSCAASGSTFSGYAMGWYRQAPGKERELVATITRRGGNTYYADSLKGRFTISRDNAKNTVYLQMNSLKPEDTAVYYCAKDGRVHSPYDYWGQGTQVTVSS,low polyreactivity
7,QVQLVESGGGLVQAGGSLRLSCAASGRIFNSYAMGWSRQAPGKERELVAAISSGGSTYYADSVKGRFTISRDNAKNTVYLQMKRLKPEDTAVYYCAARIWNGRGRKLGYGYDYWGQGTQVTVSS,low polyreactivity
8,QVQLVESGGGLVQAGGSLLLICAASGITFWSYAMGWYRQAPGKERELVAAISSTGSTNYADSVKGRFTISRDNAKNTVYLQMNSLKPEDTAVYYCAAEYTFWWSRTGKYYYWGQGTQVTVSS,high polyreactivity
9,QVQLVESGGGLVQAGGSLRLSCAASGRTFVRNAMGWYRQAPGKERELVAAINSGGSTNYADSLKGRFTISRDNPKNTVYLQMNSLKPEDTAVYYCNAPRQHVGNGNYWGQGTQVTVSS,low polyreactivity
10,QVQLVESGGGLVQAGGSLRLSCAASGSTFYFNSMGWYRQAPGKERELVAAITSGARTKYADSVKGRFTMSRDNAKITVYLQMNSLKPEDTAVYYCSASGLYYYRYRYYYWGQGTQVTVSS,high polyreactivity
11,QVQLVESGGGLVQSGGSLRLSCAASGSTSTSYVMGWYRQAPGKERELVAVITLRSGVTYYADSVKARFTISRDNPKYTVYLQMNSLKAEDTAVYYCNAATVVYTRVWRGYWGQGTHVTVSS,low polyreactivity
12,EVQLVESGGGLVQTGGSLRLSCAASGYIYSRYRMGWYRQAPGKGREIVAAISGGSSTNYADSVKGRFTISRDNSNNTVYLQMNSLRAEDTAVYYCAAYKIDSDTRVYWGQGTQVTVSS,low polyreactivity
13,QVQLVESGGGLVQAGGSLRLSCAASGFTIDGYAMGWYRQAPGKERELVAAIRRGGRTKYADSVKGRFTISRDNAKNTVYLQMNSLKPEDTAVYYCAADRSRRGHLTHGYWGQGTQVTVSS,high polyreactivity
14,QVQLVESGGCLVQAGGSLRLSCAASGRTFVTYAMRWYRQAPGKERELVAGISRRGGRTYYADSVKGRFTISRDNAKNTVYLQMNSLKPEDTAVYYCAALTYYGSDYWGQGTQVTVSS,high polyreactivity
15,QVQLVESGGGLVQAGGSHRLSCAASGSIFYVNAMGWYRQSPGKERELVAAINRGGVSTYYADSVKGRFTISRDNAKNTVYLLMNSLKPEDTAVYYCATDFYLSTYSHYVWLYGYEFYYWGQGTQVTVSS,low polyreactivity
16,QVQLVESGGGLVQAGGSLRLSFAASGSIFKGYTMGWYIQAPGKEREFVASISRRGGSTYYADSVKGRFTISRDNAKNTVYLQMNSLKPEYTAVYYCAKDYGKAYDYWGQGTQVTVSS,high polyreactivity
17,QVQLVESGGGLVQAGGSLRLSCAASGIILPVYAMGWYRQAPGKERELVAAIRWCSGRTYYADSVKGRFTISRDNAKNTVFLQMNSLKPEDTAVYYCAKDGGQRKYDYWGQGTQVTVSS,low polyreactivity
18,QVQLVESGGGLVQAGGSLRLSCAASGFIFEPNAMGWYRQAPGKERELVAAISWSGGSTYYADSVKGRFTISRDNAKNTVYLQMNSLKPEDTAVYYCNADITYAYYEYGSWGQGTQVTVSS,high polyreactivity
19,QVQLVESGGGLVQAGGSLRLSCAASGRNFPYYAMGWYRQAPGKERELVATISSSGGSTYYADSVKGRFTISRDNAKNTVYLQMNSLKPEDTAVYYCAADWYGYRQFHGYYWGQGTQVTVSS,high polyreactivity
20,QVQLVESGGGLVQAGGSLRLSCAASGRIFVTYAMGWYRQEPGKERELVAAISASGGSTYSADSVKGRFTISRDNAKNTVYLQMNSLKPEDTAVYYCAASYRSSLRPWAEDGFWGQGTQVTVSS,high polyreactivity
